This is an account of results in PMC4742278, “BS69/ZMYND11 C-Terminal Domains Bind and Inhibit EBNA2” (PLoS Pathogens, 2016).

For orientation: Kd means the constant that tells how readily two partners part at equilibrium. Read a high Kd as lower affinity.

Assay [1] concerns the target BS69 MYND domain (BS69_(MYND), residues 516–562) (mouse). The assay can be described thus: ITC; peptide (~1 mM) titrated into BS69_(MYND) or BS69_(CC-MYND) (~0.1 mM) at 5°C; 20 mM Tris-HCl pH 7.5, 100 mM NaCl, 2 mM DTT; one-site fitting model.
For assay [2], the target named is BS69/ZMYND11 coiled-coil-MYND tandem domains (BS69_(CC-MYND), residues 440–562) (mouse). Described as above.

As for H-EAPILFPDDWY-NH2 [EBNA2_(435–445) peptide (NH2-…-CONH2)], the dissociation constant (Kd) in assay [1] amounted to 93.4 µM; in assay [2], 34.9 µM.
